The results in this text go back to paper PMC3698643 (Cell Research, 2013).

B2: PR70 (108-575), wild type (domain or fragment)
chain: VVQTRKEEPLPPATSQSIPTFYFPRGRPQDSVNVDAVISKIESTFARFPHERATMDDMGLVAKACGCPLYWKGPLFYGAGGERTGSVSVHKFVAMWRKILQNCHDDAAKFVHLLMSPGCNYLVQEDFVPFLQDVVNTHPGLSFLKEASEFHSRYITTVIQRIFYAVNRSWSGRITCAELRRSSFLQNVALLEEEADINQLTEFFSYEHFYVIYCKFWELDTDHDLLIDADDLARHNDHALSTKMIDRIFSGAVTRGRKVQKEGKISYADFVWFLISEEDKKTPTSIEYWFRCMDLDGDGALSMFELEYFYEEQCRRLDSMAIEALPFQDCLCQMLDLVKPRTEGKITLQDLKRCKLANVFFDTFFNIEKYLDHEQKEQISLLRDGDSGGPELSDWEKYAAEEYDILVAEETAGEPWEDGFEAELSPVEQKLSALRSPLAQRPFFEAPSPLGAVDLYEYACGDEDLEPL
B4: PR70 (108-575) F128A (domain or fragment)
chain: VVQTRKEEPLPPATSQSIPTAYFPRGRPQDSVNVDAVISKIESTFARFPHERATMDDMGLVAKACGCPLYWKGPLFYGAGGERTGSVSVHKFVAMWRKILQNCHDDAAKFVHLLMSPGCNYLVQEDFVPFLQDVVNTHPGLSFLKEASEFHSRYITTVIQRIFYAVNRSWSGRITCAELRRSSFLQNVALLEEEADINQLTEFFSYEHFYVIYCKFWELDTDHDLLIDADDLARHNDHALSTKMIDRIFSGAVTRGRKVQKEGKISYADFVWFLISEEDKKTPTSIEYWFRCMDLDGDGALSMFELEYFYEEQCRRLDSMAIEALPFQDCLCQMLDLVKPRTEGKITLQDLKRCKLANVFFDTFFNIEKYLDHEQKEQISLLRDGDSGGPELSDWEKYAAEEYDILVAEETAGEPWEDGFEAELSPVEQKLSALRSPLAQRPFFEAPSPLGAVDLYEYACGDEDLEPL
B5: PR70 (108-575) D443K (domain or fragment)
chain: VVQTRKEEPLPPATSQSIPTFYFPRGRPQDSVNVDAVISKIESTFARFPHERATMDDMGLVAKACGCPLYWKGPLFYGAGGERTGSVSVHKFVAMWRKILQNCHDDAAKFVHLLMSPGCNYLVQEDFVPFLQDVVNTHPGLSFLKEASEFHSRYITTVIQRIFYAVNRSWSGRITCAELRRSSFLQNVALLEEEADINQLTEFFSYEHFYVIYCKFWELDTDHDLLIDADDLARHNDHALSTKMIDRIFSGAVTRGRKVQKEGKISYADFVWFLISEEDKKTPTSIEYWFRCMDLDGDGALSMFELEYFYEEQCRRLDSMAIEALPFQDCLCQMLKLVKPRTEGKITLQDLKRCKLANVFFDTFFNIEKYLDHEQKEQISLLRDGDSGGPELSDWEKYAAEEYDILVAEETAGEPWEDGFEAELSPVEQKLSALRSPLAQRPFFEAPSPLGAVDLYEYACGDEDLEPL

The target in assay [1] is PP2A holoenzyme containing PR70 (108-519) (UniProt P30153 9-589; P67775 1-309; Q9Y5P8 108-519). The assay can be described thus: SEC. A general note: In gel filtration, larger molecules generally elute earlier.
Chain of PP2A holoenzyme containing PR70 (108-519) (P30153 9-589, chain 1 of 2): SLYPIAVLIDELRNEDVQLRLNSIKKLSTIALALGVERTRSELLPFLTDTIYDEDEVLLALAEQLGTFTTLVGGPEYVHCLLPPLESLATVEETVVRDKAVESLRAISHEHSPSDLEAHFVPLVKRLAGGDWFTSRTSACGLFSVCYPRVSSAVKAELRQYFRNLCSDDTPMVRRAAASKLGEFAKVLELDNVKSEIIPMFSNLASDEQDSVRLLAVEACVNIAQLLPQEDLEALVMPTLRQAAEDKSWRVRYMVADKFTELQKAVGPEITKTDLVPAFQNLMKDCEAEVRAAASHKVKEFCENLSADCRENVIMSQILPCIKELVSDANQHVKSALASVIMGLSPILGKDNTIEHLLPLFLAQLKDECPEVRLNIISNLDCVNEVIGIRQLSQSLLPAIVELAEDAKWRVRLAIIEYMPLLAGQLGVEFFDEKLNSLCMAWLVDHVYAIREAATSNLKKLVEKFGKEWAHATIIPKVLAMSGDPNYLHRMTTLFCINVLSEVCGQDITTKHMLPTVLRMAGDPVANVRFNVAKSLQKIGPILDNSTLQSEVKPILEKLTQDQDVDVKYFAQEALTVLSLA
Chain of PP2A holoenzyme containing PR70 (108-519) (P67775 whole entry, chain 2 of 2): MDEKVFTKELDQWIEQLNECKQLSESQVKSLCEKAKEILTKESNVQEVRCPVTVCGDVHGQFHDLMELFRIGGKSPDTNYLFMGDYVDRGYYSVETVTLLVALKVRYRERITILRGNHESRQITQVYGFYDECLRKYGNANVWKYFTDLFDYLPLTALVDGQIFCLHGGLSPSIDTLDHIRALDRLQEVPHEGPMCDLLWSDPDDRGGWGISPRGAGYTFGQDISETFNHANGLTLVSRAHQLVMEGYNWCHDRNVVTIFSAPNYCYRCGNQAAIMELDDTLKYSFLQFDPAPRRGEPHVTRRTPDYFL
Assay [2] addresses PP2A scaffold subunit Aα (9-589) (UniProt P30153 9-589). Kind of assay: crystal structure.
In assay [3] the target is PP2A catalytic subunit Cα (1-309), methylated (UniProt P67775 1-309, fully methylated by LCMT-1 (residue not stated)). The assay can be described thus: crystal structure.
Chain of PP2A catalytic subunit Cα (1-309), methylated (P67775 whole entry): as the sequence (P67775 whole entry, chain 2 of 2) above
For assay [4], the target named is GST-tagged PP2A core enzyme (GST-A bound to PP2Ac) (UniProt P30153 9-589; P67775 1-309). The assay can be described thus: pull-down.
Chain of GST-tagged PP2A core enzyme (GST-A bound to PP2Ac) (P30153 9-589, chain 1 of 2): as the sequence (P30153 9-589, chain 1 of 2) above
Chain of GST-tagged PP2A core enzyme (GST-A bound to PP2Ac) (P67775 whole entry, chain 2 of 2): as the sequence (P67775 whole entry, chain 2 of 2) above
Assay [5] addresses B2. Kind of assay: pull-down.
The target of the assay “PR70 (108-575) F128A” is B4. The assay can be described thus: pull-down.
The assay “PR70 (108-575) D443K” has as its target B5. The assay can be described thus: pull-down.
Another assay has as its target T1, PR70 (108-575) R398D (UniProt Q9Y5P8 108-575, R398D).
T1 sequence: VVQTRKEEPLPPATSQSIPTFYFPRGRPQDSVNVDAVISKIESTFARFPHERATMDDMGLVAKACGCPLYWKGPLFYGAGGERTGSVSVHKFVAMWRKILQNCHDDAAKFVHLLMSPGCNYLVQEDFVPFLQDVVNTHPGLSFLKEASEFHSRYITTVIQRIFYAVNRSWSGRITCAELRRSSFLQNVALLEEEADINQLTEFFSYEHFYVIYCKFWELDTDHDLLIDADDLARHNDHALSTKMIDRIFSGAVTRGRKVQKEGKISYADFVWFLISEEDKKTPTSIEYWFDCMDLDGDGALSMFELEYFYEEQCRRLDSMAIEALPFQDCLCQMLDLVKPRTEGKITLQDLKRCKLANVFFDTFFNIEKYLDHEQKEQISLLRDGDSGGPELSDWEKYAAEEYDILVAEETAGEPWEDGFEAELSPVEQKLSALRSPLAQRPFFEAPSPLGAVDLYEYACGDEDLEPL
The assay can be described thus: pull-down.

Assay [6] deals with PP2A core enzyme (Aα-Cα heterodimer) (UniProt P30153 9-589; P67775 1-309). The assay can be described thus: SEC.
Chain of PP2A core enzyme (Aα-Cα heterodimer) (P30153 9-589, chain 1 of 2): as the sequence (P30153 9-589, chain 1 of 2) above
Chain of PP2A core enzyme (Aα-Cα heterodimer) (P67775 whole entry, chain 2 of 2): as the sequence (P67775 whole entry, chain 2 of 2) above

Chain of PP2A scaffold subunit Aα (9-589) (P30153 9-589): as the sequence (P30153 9-589, chain 1 of 2) above

As to KALPLSPRKRLGDDNLCNTPHLPPCSPPKQGKKENGPPHSHT (domain or fragment) [GST-Cdc6 (49-90)], the binding result in assay [1] is recorded as “binds”.

B1: PR70 (122-490) fused to Cdc6 (70-90) via a flexible linker (other)
chain: SQSIPTFYFPRGRPQDSVNVDAVISKIESTFARFPHERATMDDMGLVAKACGCPLYWKGPLFYGAGGERTGSVSVHKFVAMWRKILQNCHDDAAKFVHLLMSPGCNYLVQEDFVPFLQDVVNTHPGLSFLKEASEFHSRYITTVIQRIFYAVNRSWSGRITCAELRRSSFLQNVALLEEEADINQLTEFFSYEHFYVIYCKFWELDTDHDLLIDADDLARHNDHALSTKMIDRIFSGAVTRGRKVQKEGKISYADFVWFLISEEDKKTPTSIEYWFRCMDLDGDGALSMFELEYFYEEQCRRLDSMAIEALPFQDCLCQMLDLVKPRTEGKITLQDLKRCKLANVFFDTFFNIEKYLDHEQKEQISLLRSTGNASDSSSDSSSSEGDGTVLPPCSPPKQGKKENGPPHSHT
B1: the binding result in assay [2] and in assay [3] was “binds” throughout.

Regarding B2, in [4], the binding result is on record as “binds”.

B3: GST-Cdc6 (18-90) (domain or fragment)
chain: KLSRALNKAKNSSDAKLEPTNVQTVTCSPRVKALPLSPRKRLGDDNLCNTPHLPPCSPPKQGKKENGPPHSHT
B3: the binding result (in [5]; in the assay with PR70 (108-575) F128A; with PR70 (108-575) D443K; in the assay with PR70 (108-575) R398D) was “binds” each time.

Consider B4, for which, in [4], the “fold reduction of binding affinity against wild-type PR70 (108-575)” value is around 4 fold.

As to B5, the “fold reduction of binding affinity against wild-type PR70 (108-575)” value in [4] was around 2 fold.

B6: PR70 (108-519) (domain or fragment)
chain: VVQTRKEEPLPPATSQSIPTFYFPRGRPQDSVNVDAVISKIESTFARFPHERATMDDMGLVAKACGCPLYWKGPLFYGAGGERTGSVSVHKFVAMWRKILQNCHDDAAKFVHLLMSPGCNYLVQEDFVPFLQDVVNTHPGLSFLKEASEFHSRYITTVIQRIFYAVNRSWSGRITCAELRRSSFLQNVALLEEEADINQLTEFFSYEHFYVIYCKFWELDTDHDLLIDADDLARHNDHALSTKMIDRIFSGAVTRGRKVQKEGKISYADFVWFLISEEDKKTPTSIEYWFRCMDLDGDGALSMFELEYFYEEQCRRLDSMAIEALPFQDCLCQMLDLVKPRTEGKITLQDLKRCKLANVFFDTFFNIEKYLDHEQKEQISLLRDGDSGGPELSDWEKYAAEEYDILVAEETA
As for B6, in assay [6], the binding result was “binds”.
